Biological target: the molecule itself
Test: AUC

B1: WbpE from Pseudomonas aeruginosa PAO1 (enzyme, UniProt Q9HZ76 1-359, looked up)
chain: MIEFIDLKNQQARIKDKIDAGIQRVLRHGQYILGPEVTELEDRLADFVGAKYCISCANGTDALQIVQMALGVGPGDEVITPGFTYVATAETVALLGAKPVYVDIDPRTYNLDPQLLEAAITPRTKAIIPVSLYGQCADFDAINAIASKYGIPVIEDAAQSFGASYKGKRSCNLSTVACTSFFPSKPLGCYGDGGAIFTNDDELATAIRQIARHGQDRRYHHIRVGVNSRLDTLQAAILLPKLEIFEEEIALRQKVAAEYDLSLKQVGIGTPFIEVNNISVYAQYTVRMDNRESVQASLKAAGVPTAVHYPIPLNKQPAVADEKAKLPVGDKAATQVMSLPMHPYLDTASIKIICAALTN
For B1, the “stoichiometry N” value was 2.

Source: article PMC2923267 (Biochemistry, 2010)
